Laboratory results from patent US20230203180A1.

Target: transferrin receptor (on Hepa 1-6 cells; in tissues of C57BL/6 wild-type mice) (mouse) (UniProt Q62351)
Test: cell-based or functional assay

Sequence of UniProt Q62351 (Q62351 whole entry): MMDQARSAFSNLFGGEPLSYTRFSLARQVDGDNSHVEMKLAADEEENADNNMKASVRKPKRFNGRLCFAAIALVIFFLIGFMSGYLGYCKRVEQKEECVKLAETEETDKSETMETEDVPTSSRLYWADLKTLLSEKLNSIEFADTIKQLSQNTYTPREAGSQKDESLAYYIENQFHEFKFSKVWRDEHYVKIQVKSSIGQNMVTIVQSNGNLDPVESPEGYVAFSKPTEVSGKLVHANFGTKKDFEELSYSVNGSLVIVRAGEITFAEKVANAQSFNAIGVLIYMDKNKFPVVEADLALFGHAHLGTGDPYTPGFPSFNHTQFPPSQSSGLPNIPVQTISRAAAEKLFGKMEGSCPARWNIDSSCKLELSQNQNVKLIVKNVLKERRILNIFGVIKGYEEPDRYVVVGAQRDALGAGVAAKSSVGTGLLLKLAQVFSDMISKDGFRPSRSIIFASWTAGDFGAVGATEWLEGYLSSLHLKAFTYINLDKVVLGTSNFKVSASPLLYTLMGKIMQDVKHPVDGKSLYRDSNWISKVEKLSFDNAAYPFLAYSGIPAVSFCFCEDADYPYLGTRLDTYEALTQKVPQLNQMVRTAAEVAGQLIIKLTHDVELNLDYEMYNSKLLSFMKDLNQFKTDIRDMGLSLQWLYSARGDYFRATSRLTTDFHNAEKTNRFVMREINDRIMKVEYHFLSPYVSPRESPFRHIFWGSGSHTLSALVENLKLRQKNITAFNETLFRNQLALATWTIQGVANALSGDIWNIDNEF

Substance: antiTfR-siHPRT complex: RI7 217 anti-TfR1 Fab (DTX-A-002) covalently linked via a non-cleavable GMBS linker to HPRT siRNA (siHPRT)
- reduction in HPRT expression in Hepa 1-6 cells (100 nM complex, 72 hours): 50%
- reduction in HPRT expression in gastrocnemius of C57BL/6 mice (single i.v. dose, 2 mg/kg RNA, day 3): 31%
- reduction in HPRT expression in heart of C57BL/6 mice (single i.v. dose, 2 mg/kg RNA, day 3): 30%
